# Assay results published in patent US11661676B2, “Cellular high throughput encapsulation for screening or selection” (Universität Zürich, priority 2012, dated 2023).
# B1: wild-type ADRA1A: wild-type alpha 1A adrenergic receptor, parental receptor (protein, UniProt P35348 1-466, looked up)
# Alpha-1A adrenergic receptor: MVFLSGNASDSSNCTQPPAPVNISKAILLGVILGGLILFGVLGNILVILSVACHRHLHSVTHYYIVNLAVADLLLTSTVLPFSAIFEVLGYWAFGRVFCNIWAAVDVLCCTASIMGLCIISIDRYIGVSYPLRYPTIVTQRRGLMALLCVWALSLVISIGPLFGWRQPAPEDETICQINEEPGYVLFSALGSFYLPLAIILVMYCRVYVVAKRESRGLKSGLKTDKSDSEQVTLRIHRKNAPAGGSGMASAKTKTHFSVRLLKFSREKKAAKTLGIVVGCFVLCWLPFFLVMPIGSFFPDFKPSETVFKIVFWLGYLNSCINPIIYPCSSQEFKKAFQNVLRIQCLCRKQSSKHALGYTLHPPSQAVEGQHKDMVRIPVGSRETFYRISKTDGVCEWKFFSSMPRGSARITVSKDQSSCTTARVRSKSFLQVCCCVGPSTPSLDKNHQVPTIKVHTISLSENGEEV
# Experiment: Thermostability assay of ADRA1A derived clones ([3H]prazosin binding after heat challenge)
# Assay type: physicochemical
# Settings: PBS-E(DCC), no ligand during solubilization, even at 20° C.
# Description: Detergent-stable ADRA1A library members were selected with FACS using 200 nM BODIPY FL prazosin. (FIG. 8a) 21 selected clones were expressed individually, solubilized and assayed for ligand binding activity after 3 hours in PBS-E(DCC). (FIG. 8b) The top 4 receptors were solubilized in PBS-E(DCC) for 3 h at 20° C. in the absence of ligand. Solubilized receptors were captured from the supernatant with streptavidin paramagnetic beads at 4° C. for 1 h. ADRA1ADCCA3 (black circles), ADRA1ADCCG4 (grey open squares), ADRA1ADCCD7 (black crosses) or ADRA1ADCCD8 (grey open circles) coated beads were either treated with 20 nM [^3H]prazosin for 1 h before being thermally challenged for 30 min at increasing temperatures or […] treated with 20 nM [^3H]prazosin after heating in the absence of ligand. […] Parallel measurements were taken for every receptor in the presence of 10 μM unlabeled prazosin as a competitor to determine the specific […] signal. Data points are plotted as the mean of duplicate measurements, 100% represents the signal measured after heating at 20° C. for 30 min. Error bars indicate the standard error of the mean.
# For ADRA1A derived clones, expression and sonication was conducted as above, but the pellet was solubilized in PBS-E(DCC) containing 50 mg/ml chicken lysozyme at 20° C. with vigorous shaking for 3 h in the absence of ligand. […]
molecule,measurement,setting,value
B1,ligand binding signal when solubilized in the absence of ligand,,no significant fluorescence signal was obtained
same,ligand binding signal when solubilized in the absence of ligand,listed as ADRA1A,No significant signal could be measured
